According to patent US20160272683A1 (Novo Nordisk, published 2016):
Numbered stars: 1 amine (or outer) side, 2 acyl side, 3 side chain; on linkers, the order of the positions; unused ones are H or OH. * marks the point of attachment. C20 diacid = O=C(O)CCCCCCCCCCCCCCCCCCC(=O)*; C18 diacid = O=C(O)CCCCCCCCCCCCCCCCC(=O)*; γGlu = O=C(O)[C@H](CCC(=O)[*:2])N[*:1]

T1: human amylin 3(a) receptor (human calcitonin receptor co-expressed with RAMP-3) (human, UniProt P30988 25-474; O60896 24-148, limits assumed)
T1 sequence (looked up) 1: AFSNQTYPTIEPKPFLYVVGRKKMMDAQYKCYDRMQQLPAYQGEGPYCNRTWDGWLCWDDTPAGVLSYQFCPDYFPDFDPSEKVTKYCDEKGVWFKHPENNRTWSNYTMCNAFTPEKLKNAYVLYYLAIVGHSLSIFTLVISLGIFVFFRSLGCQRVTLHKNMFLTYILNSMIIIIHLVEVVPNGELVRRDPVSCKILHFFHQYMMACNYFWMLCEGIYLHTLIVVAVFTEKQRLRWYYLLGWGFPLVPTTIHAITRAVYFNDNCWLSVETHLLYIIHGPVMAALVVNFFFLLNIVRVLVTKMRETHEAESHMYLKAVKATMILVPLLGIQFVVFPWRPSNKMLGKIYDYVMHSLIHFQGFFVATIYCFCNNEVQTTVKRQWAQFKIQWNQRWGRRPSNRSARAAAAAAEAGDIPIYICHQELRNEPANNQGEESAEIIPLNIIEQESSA
T1 sequence (looked up) 2: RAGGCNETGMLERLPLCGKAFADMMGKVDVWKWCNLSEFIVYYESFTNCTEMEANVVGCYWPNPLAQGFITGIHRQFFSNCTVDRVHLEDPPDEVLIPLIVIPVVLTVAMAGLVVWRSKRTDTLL

T2: human calcitonin receptor (human, UniProt P30988 25-474)
T2 sequence (looked up): T1 sequence (looked up) 1

B1: [N-terminal(C20 diacid-gGlu), des1, 4G, 23Y, 30S, 31G]mimylin (peptide)
peptide: {C20 diacid-γGlu}-ASGLSTAALGRLSAELHELATYPRTETGSGSP-NH2
B2: [N-terminal(C20 diacid-gGlu), -1E, 1A, 23Y, 30S, 31G]mimylin (peptide)
peptide: {C20 diacid-γGlu}-EAASELSTAALGRLSAELHELATYPRTETGSGSP-NH2
SMILES: CC(C)C[C@H](NC(=O)[C@H](C)NC(=O)[C@H](C)NC(=O)[C@@H](NC(=O)[C@H](CO)NC(=O)[C@H](CC(C)C)NC(=O)[C@H](CCC(=O)O)NC(=O)[C@H](CO)NC(=O)[C@H](C)NC(=O)[C@H](C)NC(=O)[C@H](CCC(=O)O)NC(=O)CC[C@H](NC(=O)CCCCCCCCCCCCCCCCCCC(=O)O)C(=O)O)[C@@H](C)O)C(=O)NCC(=O)N[C@@H](CCCNC(=N)N)C(=O)N[C@@H](CC(C)C)C(=O)N[C@@H](CO)C(=O)N[C@@H](C)C(=O)N[C@@H](CCC(=O)O)C(=O)N[C@@H](CC(C)C)C(=O)N[C@@H](Cc1c[nH]cn1)C(=O)N[C@@H](CCC(=O)O)C(=O)N[C@@H](CC(C)C)C(=O)N[C@@H](C)C(=O)N[C@H](C(=O)N[C@@H](Cc1ccc(O)cc1)C(=O)N1CCC[C@H]1C(=O)N[C@@H](CCCNC(=N)N)C(=O)N[C@H](C(=O)N[C@@H](CCC(=O)O)C(=O)N[C@H](C(=O)NCC(=O)N[C@@H](CO)C(=O)NCC(=O)N[C@@H](CO)C(=O)N1CCC[C@H]1C(N)=O)[C@@H](C)O)[C@@H](C)O)[C@@H](C)O
B3: [N-terminal(C20 diacid-gGlu), des1, 21S, 23Y, 30S, 31G]mimylin (peptide)
peptide: {C20 diacid-γGlu}-ASELSTAALGRLSAELHELSTYPRTETGSGSP-NH2
SMILES: CC(C)C[C@H](NC(=O)[C@H](C)NC(=O)[C@H](C)NC(=O)[C@@H](NC(=O)[C@H](CO)NC(=O)[C@H](CC(C)C)NC(=O)[C@H](CCC(=O)O)NC(=O)[C@H](CO)NC(=O)[C@H](C)NC(=O)CC[C@H](NC(=O)CCCCCCCCCCCCCCCCCCC(=O)O)C(=O)O)[C@@H](C)O)C(=O)NCC(=O)N[C@@H](CCCNC(=N)N)C(=O)N[C@@H](CC(C)C)C(=O)N[C@@H](CO)C(=O)N[C@@H](C)C(=O)N[C@@H](CCC(=O)O)C(=O)N[C@@H](CC(C)C)C(=O)N[C@@H](Cc1c[nH]cn1)C(=O)N[C@@H](CCC(=O)O)C(=O)N[C@@H](CC(C)C)C(=O)N[C@@H](CO)C(=O)N[C@H](C(=O)N[C@@H](Cc1ccc(O)cc1)C(=O)N1CCC[C@H]1C(=O)N[C@@H](CCCNC(=N)N)C(=O)N[C@H](C(=O)N[C@@H](CCC(=O)O)C(=O)N[C@H](C(=O)NCC(=O)N[C@@H](CO)C(=O)NCC(=O)N[C@@H](CO)C(=O)N1CCC[C@H]1C(N)=O)[C@@H](C)O)[C@@H](C)O)[C@@H](C)O
B4: [N-terminal(C20 diacid-gGlu), des1, 12H, 25H, 30S, 31G]mimylin (peptide)
peptide: {C20 diacid-γGlu}-ASELSTAALGHLSAELHELATLPHTETGSGSP-NH2
SMILES: CC(C)C[C@H](NC(=O)[C@H](C)NC(=O)[C@H](C)NC(=O)[C@@H](NC(=O)[C@H](CO)NC(=O)[C@H](CC(C)C)NC(=O)[C@H](CCC(=O)O)NC(=O)[C@H](CO)NC(=O)[C@H](C)NC(=O)CC[C@H](NC(=O)CCCCCCCCCCCCCCCCCCC(=O)O)C(=O)O)[C@@H](C)O)C(=O)NCC(=O)N[C@@H](Cc1c[nH]cn1)C(=O)N[C@@H](CC(C)C)C(=O)N[C@@H](CO)C(=O)N[C@@H](C)C(=O)N[C@@H](CCC(=O)O)C(=O)N[C@@H](CC(C)C)C(=O)N[C@@H](Cc1c[nH]cn1)C(=O)N[C@@H](CCC(=O)O)C(=O)N[C@@H](CC(C)C)C(=O)N[C@@H](C)C(=O)N[C@H](C(=O)N[C@@H](CC(C)C)C(=O)N1CCC[C@H]1C(=O)N[C@@H](Cc1c[nH]cn1)C(=O)N[C@H](C(=O)N[C@@H](CCC(=O)O)C(=O)N[C@H](C(=O)NCC(=O)N[C@@H](CO)C(=O)NCC(=O)N[C@@H](CO)C(=O)N1CCC[C@H]1C(N)=O)[C@@H](C)O)[C@@H](C)O)[C@@H](C)O
B5: [N-terminal(C20 diacid-gGlu), des1, 23Y, 30S, 31G, 32A]mimylin (peptide)
peptide: {C20 diacid-γGlu}-ASELSTAALGRLSAELHELATYPRTETGSGAP-NH2
SMILES: CC(C)C[C@H](NC(=O)[C@H](C)NC(=O)[C@H](C)NC(=O)[C@@H](NC(=O)[C@H](CO)NC(=O)[C@H](CC(C)C)NC(=O)[C@H](CCC(=O)O)NC(=O)[C@H](CO)NC(=O)[C@H](C)NC(=O)CC[C@H](NC(=O)CCCCCCCCCCCCCCCCCCC(=O)O)C(=O)O)[C@@H](C)O)C(=O)NCC(=O)N[C@@H](CCCNC(=N)N)C(=O)N[C@@H](CC(C)C)C(=O)N[C@@H](CO)C(=O)N[C@@H](C)C(=O)N[C@@H](CCC(=O)O)C(=O)N[C@@H](CC(C)C)C(=O)N[C@@H](Cc1c[nH]cn1)C(=O)N[C@@H](CCC(=O)O)C(=O)N[C@@H](CC(C)C)C(=O)N[C@@H](C)C(=O)N[C@H](C(=O)N[C@@H](Cc1ccc(O)cc1)C(=O)N1CCC[C@H]1C(=O)N[C@@H](CCCNC(=N)N)C(=O)N[C@H](C(=O)N[C@@H](CCC(=O)O)C(=O)N[C@H](C(=O)NCC(=O)N[C@@H](CO)C(=O)NCC(=O)N[C@@H](C)C(=O)N1CCC[C@H]1C(N)=O)[C@@H](C)O)[C@@H](C)O)[C@@H](C)O
B6: [N-terminal(C18 diacid), 5I, 9I, 10I, 20I]mimylin (peptide)
peptide: {C18 diacid}-EASEISTAIIGRLSAELHEIATLPRTETGPESP-NH2
SMILES: CC[C@H](C)[C@H](NC(=O)[C@H](C)NC(=O)[C@@H](NC(=O)[C@H](CO)NC(=O)[C@@H](NC(=O)[C@H](CCC(=O)O)NC(=O)[C@H](CO)NC(=O)[C@H](C)NC(=O)[C@H](CCC(=O)O)NC(=O)CCCCCCCCCCCCCCCCC(=O)O)[C@@H](C)CC)[C@@H](C)O)C(=O)N[C@H](C(=O)NCC(=O)N[C@@H](CCCNC(=N)N)C(=O)N[C@@H](CC(C)C)C(=O)N[C@@H](CO)C(=O)N[C@@H](C)C(=O)N[C@@H](CCC(=O)O)C(=O)N[C@@H](CC(C)C)C(=O)N[C@@H](Cc1c[nH]cn1)C(=O)N[C@@H](CCC(=O)O)C(=O)N[C@H](C(=O)N[C@@H](C)C(=O)N[C@H](C(=O)N[C@@H](CC(C)C)C(=O)N1CCC[C@H]1C(=O)N[C@@H](CCCNC(=N)N)C(=O)N[C@H](C(=O)N[C@@H](CCC(=O)O)C(=O)N[C@H](C(=O)NCC(=O)N1CCC[C@H]1C(=O)N[C@@H](CCC(=O)O)C(=O)N[C@@H](CO)C(=O)N1CCC[C@H]1C(N)=O)[C@@H](C)O)[C@@H](C)O)[C@@H](C)O)[C@@H](C)CC)[C@@H](C)CC
B7: [N-terminal(C20 diacid-gGlu), des1, 23Y, 30S, 31G, 33Y]mimylin (peptide)
peptide: {C20 diacid-γGlu}-ASELSTAALGRLSAELHELATYPRTETGSGSY-NH2
SMILES: CC(C)C[C@H](NC(=O)[C@H](C)NC(=O)[C@H](C)NC(=O)[C@@H](NC(=O)[C@H](CO)NC(=O)[C@H](CC(C)C)NC(=O)[C@H](CCC(=O)O)NC(=O)[C@H](CO)NC(=O)[C@H](C)NC(=O)CC[C@H](NC(=O)CCCCCCCCCCCCCCCCCCC(=O)O)C(=O)O)[C@@H](C)O)C(=O)NCC(=O)N[C@@H](CCCNC(=N)N)C(=O)N[C@@H](CC(C)C)C(=O)N[C@@H](CO)C(=O)N[C@@H](C)C(=O)N[C@@H](CCC(=O)O)C(=O)N[C@@H](CC(C)C)C(=O)N[C@@H](Cc1c[nH]cn1)C(=O)N[C@@H](CCC(=O)O)C(=O)N[C@@H](CC(C)C)C(=O)N[C@@H](C)C(=O)N[C@H](C(=O)N[C@@H](Cc1ccc(O)cc1)C(=O)N1CCC[C@H]1C(=O)N[C@@H](CCCNC(=N)N)C(=O)N[C@H](C(=O)N[C@@H](CCC(=O)O)C(=O)N[C@H](C(=O)NCC(=O)N[C@@H](CO)C(=O)NCC(=O)N[C@@H](CO)C(=O)N[C@@H](Cc1ccc(O)cc1)C(N)=O)[C@@H](C)O)[C@@H](C)O)[C@@H](C)O
B8: [N-terminal(C18 diacid-gGlu), des1, 4Q, 30S, 31G]mimylin (peptide)
peptide: {C18 diacid-γGlu}-ASQLSTAALGRLSAELHELATLPRTETGSGSP-NH2
SMILES: CC(C)C[C@H](NC(=O)[C@H](C)NC(=O)[C@H](C)NC(=O)[C@@H](NC(=O)[C@H](CO)NC(=O)[C@H](CC(C)C)NC(=O)[C@H](CCC(N)=O)NC(=O)[C@H](CO)NC(=O)[C@H](C)NC(=O)CC[C@H](NC(=O)CCCCCCCCCCCCCCCCC(=O)O)C(=O)O)[C@@H](C)O)C(=O)NCC(=O)N[C@@H](CCCNC(=N)N)C(=O)N[C@@H](CC(C)C)C(=O)N[C@@H](CO)C(=O)N[C@@H](C)C(=O)N[C@@H](CCC(=O)O)C(=O)N[C@@H](CC(C)C)C(=O)N[C@@H](Cc1c[nH]cn1)C(=O)N[C@@H](CCC(=O)O)C(=O)N[C@@H](CC(C)C)C(=O)N[C@@H](C)C(=O)N[C@H](C(=O)N[C@@H](CC(C)C)C(=O)N1CCC[C@H]1C(=O)N[C@@H](CCCNC(=N)N)C(=O)N[C@H](C(=O)N[C@@H](CCC(=O)O)C(=O)N[C@H](C(=O)NCC(=O)N[C@@H](CO)C(=O)NCC(=O)N[C@@H](CO)C(=O)N1CCC[C@H]1C(N)=O)[C@@H](C)O)[C@@H](C)O)[C@@H](C)O

Key:
[1] = molecular target: T1, human amylin 3(a) receptor (human …); test: cell-based or functional assay
[2] = molecular target: T2, human calcitonin receptor; test: cell-based or functional assay

Binder | hAmylin-R funct. EC50 (pM) [1] [pM] | hCTR funct. EC50 (pM) [2] [pM]
B1 | 38 | 42
B2 | 17 | 15
B3 | 33 | 27
B4 | 26 | 12
B5 | 37 | 41
B6 | 10 | 6
B7 | 32 | 29
B8 | 9 | 11
